Test results taken from paper doi:10.1101/544239 (bioRxiv, 2019).

Legend:
AUC = target: the molecule itself; test: AUC
[1] = target: T1, CheW-CheA complex of Helicobacter pylori (Helicobacter pylori (G27 strain) | …, UniProt B5Z859 1-807; O25152 1-165); test: kinase activity titration
T1 sequence (looked up) 1: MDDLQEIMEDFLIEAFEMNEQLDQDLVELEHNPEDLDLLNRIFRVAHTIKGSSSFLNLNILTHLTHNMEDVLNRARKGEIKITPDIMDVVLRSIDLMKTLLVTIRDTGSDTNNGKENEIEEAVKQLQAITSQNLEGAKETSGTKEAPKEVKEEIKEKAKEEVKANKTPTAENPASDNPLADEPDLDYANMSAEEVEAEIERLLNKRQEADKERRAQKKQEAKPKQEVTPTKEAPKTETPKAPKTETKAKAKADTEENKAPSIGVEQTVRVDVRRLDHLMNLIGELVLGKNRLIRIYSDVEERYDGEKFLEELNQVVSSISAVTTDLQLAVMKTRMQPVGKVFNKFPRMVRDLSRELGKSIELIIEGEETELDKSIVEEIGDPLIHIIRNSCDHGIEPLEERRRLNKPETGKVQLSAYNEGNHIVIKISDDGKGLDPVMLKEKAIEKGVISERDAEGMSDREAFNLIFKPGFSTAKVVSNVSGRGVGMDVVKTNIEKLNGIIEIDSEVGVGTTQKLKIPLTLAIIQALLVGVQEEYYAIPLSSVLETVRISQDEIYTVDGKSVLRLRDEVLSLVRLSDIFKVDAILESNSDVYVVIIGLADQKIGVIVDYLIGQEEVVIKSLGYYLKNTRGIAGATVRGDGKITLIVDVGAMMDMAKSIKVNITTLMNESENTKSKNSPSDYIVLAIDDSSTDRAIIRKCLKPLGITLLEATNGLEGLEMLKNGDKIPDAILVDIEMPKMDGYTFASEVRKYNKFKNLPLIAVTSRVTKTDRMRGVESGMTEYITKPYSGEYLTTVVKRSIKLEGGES
T1 sequence (looked up) 2: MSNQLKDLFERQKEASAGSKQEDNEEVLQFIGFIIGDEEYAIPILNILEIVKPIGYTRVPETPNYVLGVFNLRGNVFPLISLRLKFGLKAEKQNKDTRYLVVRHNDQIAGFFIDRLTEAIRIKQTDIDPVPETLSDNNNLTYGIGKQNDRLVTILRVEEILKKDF

[2] = target: T2, Helicobacter pylori histidine kinase CheA, strain G27 (Helicobacter pylori (G27 strain), UniProt B5Z859 1-807); test: kinase activity titration
T2 sequence (looked up): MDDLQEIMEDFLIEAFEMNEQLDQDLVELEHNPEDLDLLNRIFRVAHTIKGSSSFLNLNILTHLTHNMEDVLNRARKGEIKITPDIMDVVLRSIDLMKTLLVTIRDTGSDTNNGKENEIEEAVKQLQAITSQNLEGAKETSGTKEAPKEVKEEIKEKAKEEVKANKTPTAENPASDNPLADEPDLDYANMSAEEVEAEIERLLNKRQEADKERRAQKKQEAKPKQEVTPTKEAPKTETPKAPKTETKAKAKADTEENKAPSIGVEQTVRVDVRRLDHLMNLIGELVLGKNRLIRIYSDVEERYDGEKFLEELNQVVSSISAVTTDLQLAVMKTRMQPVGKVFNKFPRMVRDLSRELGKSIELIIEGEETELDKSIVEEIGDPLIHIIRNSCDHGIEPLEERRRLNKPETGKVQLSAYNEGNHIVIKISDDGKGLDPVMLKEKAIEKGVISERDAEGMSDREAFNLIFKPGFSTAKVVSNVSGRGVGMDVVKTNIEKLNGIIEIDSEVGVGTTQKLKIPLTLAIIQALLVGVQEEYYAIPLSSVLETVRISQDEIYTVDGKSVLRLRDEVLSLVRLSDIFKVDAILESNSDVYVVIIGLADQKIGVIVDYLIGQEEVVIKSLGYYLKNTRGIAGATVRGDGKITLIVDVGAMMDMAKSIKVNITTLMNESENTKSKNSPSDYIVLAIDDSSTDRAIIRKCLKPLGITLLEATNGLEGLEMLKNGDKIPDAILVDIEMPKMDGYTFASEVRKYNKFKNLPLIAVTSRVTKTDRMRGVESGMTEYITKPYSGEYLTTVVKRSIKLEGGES

Binder	Kd (AUC)	stoichiometry N (AUC)	Kd [1]	Kd [2]
Helicobacter pylori transducer-like protein D (TlpD), strain SS1 (receptor) not shown	150 nM	2	15.2 µM	–
Helicobacter pylori scaffold protein CheW, strain SS1 (natural protein, Helicobacter pylori (SS1 strain), UniProt O25152 1-165, looked up) MSNQLKDLFERQKEASAGSKQEDNEEVLQFIGFIIGDEEYAIPILNILEIVKPIGYTRVPETPNYVLGVFNLRGNVFPLISLRLKFGLKAEKQNKDTRYLVVRHNDQIAGFFIDRLTEAIRIKQTDIDPVPETLSDNNNLTYGIGKQNDRLVTILRVEEILKKDF	–	–	–	14.6 µM
